From patent US20260374739A1, “SMALL MOLECULAR WEIGHT CHEMICAL COMPOUND TO ANTAGONIZE EPH-EPHRIN TETRAMERIZATION AND INHIBIT BIDIRECTIONAL SIGNALING” (THE BOARD OF REGENTS OF THE UNIVERSITY OF TEXAS SYSTEM, priority 2022, published 2026)
Where two headings read alike, the source gives them in different places.

T1: EphB1-EphrinB2 (EB2) (Rattus norvegicus, UniProt P09759)
T1 construct: rat EphB1-Fc residues 18-538; mouse EB2-His residues 18-232; purchased R&D Systems (EphB1-Fc); Sino Biologicals (EB2-His)
T1 sequence (P09759 18-538): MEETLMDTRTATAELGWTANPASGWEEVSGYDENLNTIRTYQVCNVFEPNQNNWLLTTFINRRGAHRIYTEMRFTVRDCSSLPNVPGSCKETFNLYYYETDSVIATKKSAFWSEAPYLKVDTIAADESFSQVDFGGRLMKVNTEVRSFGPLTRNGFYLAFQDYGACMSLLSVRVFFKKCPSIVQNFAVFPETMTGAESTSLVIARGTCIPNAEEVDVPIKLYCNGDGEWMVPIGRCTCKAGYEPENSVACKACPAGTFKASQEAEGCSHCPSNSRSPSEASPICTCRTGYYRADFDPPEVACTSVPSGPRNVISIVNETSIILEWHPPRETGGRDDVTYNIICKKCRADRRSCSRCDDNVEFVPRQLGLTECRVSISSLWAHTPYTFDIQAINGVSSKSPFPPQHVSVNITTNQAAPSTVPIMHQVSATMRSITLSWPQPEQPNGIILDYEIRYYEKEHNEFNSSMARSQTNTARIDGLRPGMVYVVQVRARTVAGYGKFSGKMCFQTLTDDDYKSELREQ


Tests used:
EphB1-EphrinB2 (EB2) = target: T1, EphB1-EphrinB2 (EB2); test: Alpha assay EphB1-EphrinB2 (EB2) interaction; type: binding, mouse EB2
From the text: A chemiluminescent AlphaScreen™ bead-based proximity assay suitable for HTS was developed to measure the receptor-ligand interaction formed between EphB1 and EphrinB2 (EB2) ectodomains (FIG. 3). Here, when singlet oxygen molecules generated by high energy irradiation of donor beads travel over a constrained distance to excite acceptor beads, a chemiluminescent signal is generated and detected. If an analyte interferes with the EphB1-EB2 protein-protein interaction, close proximity of the donor and acceptor beads will be disrupted resulting in diminished or lost energy transfer and reduced acceptor bead emission.
Test was conducted in the Alpha assay, to see if purified soluble Reelin (previously shown to bind EphB1 ectodomain) can interfere with EphB1-EB2 binding.
The EphB1-EB2 screen was conducted using 0.8 nM of each protein, 50 ng beads per well, and assessed at 5 μM a library of −240,000 small, drug-like chemicals. […] They were also tested in a counter screen designed to identify non-specific compounds. Here, a single-protein Alpha assay was set up using a dual-tagged EphB2-His-Fc ectodomain protein that can bind both donor and acceptor beads to bring them into proximity. If a selected compound simply absorbs the chemiluminescent signal or interferes with bead function/binding or protein folding, it was hypothesized that it would also reduce signals in the single protein assay, and would consider it a false positive.

human EphrinB1 = test: Octet binding kinetics, EphB to immobilized human EphrinB1
Description: (§1) Studies were conducted to confirm that A20 chemicals can effectively target the human Eph/Ephrin proteins. Octet system was used to first characterize the biophysical interactions of the human B class Eph and Ephrin proteins, and then was tested to assess how A20 may disrupt the interactions. Since the human and rodent proteins are highly conserved, and essentially identical, with EphB2 sharing 99.5% identity between human and mouse, with only 5 of ~1,000 amino acids different, any species-specific differences were not anticipated. Therefore, commercially available human EphrinB1-Fc (EB1), EphrinB2-Fc (EB2), and EphrinB3-Fc (EB3) ectodomain proteins were sparsely immobilized onto biosensors and then exposed to 50 nM of soluble human EphB1-His, EphB2-His, and EphB4-His ectodomains for 800 sec association and 1,000 sec dissociation steps with a total of nine different interactions analyzed. In the absence of A20 chemical, the immobilized human EphrinB proteins bound to their appropriate human EphB target proteins; with EphrinB1 only bound EphB1 and EphB2, EphrinB2 bound all three EphB1, EphB2, and EphB4, and EphrinB3 only bound EphB1 and EphB2 (FIG. 19A-19B).
(§2) While the binding kinetics described above for the various human EphB-EphrinB interactions are complicated and show clear differences, all are extremely high affinity interactions with KD values in the low nanomolar to picomolar range (Table 2). Octet software allows for detailed biophysical analysis of the sensorgram data and first attempts to fit the information to equations that follow rather standard binding characteristics, most typified by either a classic 1:1 binding type interaction (like formation of a simple receptor-ligand dimer) or something more complex/heterologous involving 2:1 binding type interactions (like Eph-Ephrin dimer and tetramer). Based on the information contained in the sensorgram run under analysis, the Octet software will attempt to draw curves to fit the data to 1:1 and 2:1 binding equations. […] The resulting curve fits are not always perfect, especially for such complex interactions as the Eph/Ephrin system. As such, while the EphB2-EB2 and EphB4-EB2 data fit a 2:1 curve fairly well, the EphB1-EB2 interaction fits neither 1:1 or 2:1 well and the R2 values of this interaction reflects this. The interaction of EB1 with its two target proteins is more divergent. […] The EphB1-EB3 and EphB2-EB3 interactions are like that for EphB1-EB1, clear 1:1 curve fits with a slow gradual on rate of association followed by no off rate in dissociation.

human EphrinB2 = test: Octet binding kinetics, EphB to immobilized human EphrinB2
Description: as §1, §2

human EphrinB3 = test: Octet binding kinetics, EphB to immobilized human EphrinB3; settings: for Kd: 2:1 fit
Description: as §1, §2

[1] = 2:1 fit, in parentheses R2 value, read-out: KD2
[2] = in parentheses R2 value, read-out: KD
[3] = in parentheses R2 value, read-out: KD2

Row | Kd (human EphrinB1; [1]) [nM] | Kd (human EphrinB1; 2:1 fit, read-out: KD1) [nM] | Kd (human EphrinB1; [2]) [nM] | Kd (human EphrinB2; [1]) [nM] | Kd (human EphrinB2; 2:1 fit, read-out: KD1) [nM] | Kd (human EphrinB2; [2]) [nM] | Kd (human EphrinB3; [3]) [nM] | Kd (human EphrinB3; read-out: KD1) [nM] | KD (binding in words) (human EphrinB1) | KD (binding in words) (human EphrinB3) | Molecule | antagonism of EphB1-EB2 (EphB1-EphrinB2 (EB2))
1 |  |  |  |  |  |  |  |  |  |  | CC1CCN(Cc2cc(Br)c(O)c3ncccc23)CC1 [Compound 66, 7-bromo-5-((4-methylpiperidin-1-yl)methyl)quinolin-8-ol, reference compound] | did not pass through the Alpha confirmation and counter screens
2 |  |  |  |  |  |  |  |  |  |  | Reelin: purified soluble Reelin (previously shown to bind EphB1 ectodomain) | almost complete inhibition at 200 nM
3 | 40 | 41 | 8.57 | 16.8 | 5.9 | 4.84 | 0.0018 | 0.0018 |  |  | EphB2: soluble human EphB2-His ectodomain (protein, UniProt P29323 19-543, looked up, extracellular domain His tag, soluble human EphB2-His ectodomain) extracellular domain: VEETLMDSTTATAELGWMVHPPSGWEEVSGYDENMNTIRTYQVCNVFESSQNNWLRTKFIRRRGAHRIHVEMKFSVRDCSSIPSVPGSCKETFNLYYYEADFDSATKTFPNWMENPWVKVDTIAADESFSQVDLGGRVMKINTEVRSFGPVSRSGFYLAFQDYGGCMSLIAVRVFYRKCPRIIQNGAIFQETLSGAESTSLVAARGSCIANAEEVDVPIKLYCNGDGEWLVPIGRCMCKAGFEAVENGTVCRGCPSGTFKANQGDEACTHCPINSRTTSEGATNCVCRNGYYRADLDPLDMPCTTIPSAPQAVISSVNETSLMLEWTPPRDSGGREDLVYNIICKSCGSGRGACTRCGDNVQYAPRQLGLTEPRIYISDLLAHTQYTFEIQAVNGVTDQSPFSPQFASVNITTNQAAPSAVSIMHQVSRTVDSITLSWSQPDQPNGVILDYELQYYEKELSEYNATAIKSPTNTVTVQGLKAGAIYVFQVRARTVAGYGRYSGKMYFQTMTEAEYQTSIQEKLPL | 
4 |  |  |  | 42 | 0.35 | 1.8 |  |  | no binding | no binding | EphB4: soluble human EphB4-His ectodomain (protein, UniProt P54760 16-539, looked up, extracellular domain His tag, soluble human EphB4-His ectodomain) extracellular domain: LEETLLNTKLETADLKWVTFPQVDGQWEELSGLDEEQHSVRTYEVCDVQRAPGQAHWLRTGWVPRRGAVHVYATLRFTMLECLSLPRAGRSCKETFTVFYYESDADTATALTPAWMENPYIKVDTVAAEHLTRKRPGAEATGKVNVKTLRLGPLSKAGFYLAFQDQGACMALLSLHLFYKKCAQLTVNLTRFPETVPRELVVPVAGSCVVDAVPAPGPSPSLYCREDGQWAEQPVTGCSCAPGFEAAEGNTKCRACAQGTFKPLSGEGSCQPCPANSHSNTIGSAVCQCRVGYFRARTDPRGAPCTTPPSAPRSVVSRLNGSSLHLEWSAPLESGGREDLTYALRCRECRPGGSCAPCGGDLTFDPGPRDLVEPWVVVRGLRPDFTYTFEVTALNGVSSLATGPVPFEPVNVTTDREVPPAVSDIRVTRSSPSSLSLAWAVPRAPSGAVLDYEVKYHEKGAEGPSSVRFLKTSENRAELRGLKRGASYLVQVRARSEAGYGPFGQEHHSQTQLDESEGWREQLA | 
5 |  |  |  | 27 | < 0.001 | 4.3 | 0.0012 | 0.0014 |  |  | EphB1: soluble human EphB1-His ectodomain (protein, UniProt P54762 18-540, looked up, extracellular domain His tag, soluble human EphB1-His ectodomain) extracellular domain: MEETLMDTRTATAELGWTANPASGWEEVSGYDENLNTIRTYQVCNVFEPNQNNWLLTTFINRRGAHRIYTEMRFTVRDCSSLPNVPGSCKETFNLYYYETDSVIATKKSAFWSEAPYLKVDTIAADESFSQVDFGGRLMKVNTEVRSFGPLTRNGFYLAFQDYGACMSLLSVRVFFKKCPSIVQNFAVFPETMTGAESTSLVIARGTCIPNAEEVDVPIKLYCNGDGEWMVPIGRCTCKPGYEPENSVACKACPAGTFKASQEAEGCSHCPSNSRSPAEASPICTCRTGYYRADFDPPEVACTSVPSGPRNVISIVNETSIILEWHPPRETGGRDDVTYNIICKKCRADRRSCSRCDDNVEFVPRQLGLTECRVSISSLWAHTPYTFDIQAINGVSSKSPFPPQHVSVNITTNQAAPSTVPIMHQVSATMRSITLSWPQPEQPNGIILDYEIRYYEKEHNEFNSSMARSQTNTARIDGLRPGMVYVVQVRARTVAGYGKFSGKMCFQTLTDDDYKSELREQLP | 
